Data reported in patent US20190241648A1 (STATEN BIOTECHNOLOGY B V, published 2019).
Ends that are not written are not given here.

Tests used:
Experiment in all cases: peptide microarray
[1] = molecular target: T1, ApoC3 peptide … K51N (human, not fully specified; cyclic constrained)
T1 peptide: ARGWVTDGFSSLN
Outline: (§1)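 Peptide microarrays of ApoC3-derived peptides incubated with antibody samples, then stained with goat anti-human IgG (Fc) DyLight680 (1:5000) and anti-HA DyLight800 (1:2000) control. Read-out by fluorescence scanning at intensities 7/7 (red/green); a secondary-only pre-stain checked background, HA frame peptides served as quality control.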

[2] = molecular target: T2, ApoC3 peptide … W42D (human, not fully specified (bridges); also: cyclic constrained)
T2 peptide: ARGDVTDGFSSLK
Outline: as §1

[3] = molecular target: ApoC3 peptide … S48P (human, cyclic constrained)
Outline: as §1

[4] = molecular target: T3, ApoC3 peptide … L50G (human, not fully specified; cyclic constrained)
T3 peptide: ARGWVTDGFSSGK
Outline: as §1

[5] = molecular target: T4, ApoC3 peptide … S49Y (human, not fully specified (bridges); also: cyclic constrained)
T4 peptide: ARGWVTDGFSYLK
Outline: as §1

[6] = molecular target: T5, ApoC3 peptide … R40T (human, not fully specified (bridges); also: cyclic constrained)
T5 peptide: ATGWVTDGFSSLK
Outline: as §1

[7] = molecular target: T6, ApoC3 peptide … V43Y (human, not fully specified (bridges); also: cyclic constrained)
T6 peptide: ARGWYTDGFSSLK
Outline: as §1

[8] = molecular target: T7, ApoC3 peptide … T44M (human, not fully specified (bridges); also: cyclic constrained)
T7 peptide: ARGWVMDGFSSLK
Outline: as §1

[9] = molecular target: T8, wild-type ApoC3 peptide ARGWVTDGFSSLK (SEQ ID NO: 45) (human, not fully specified (bridges); also: cyclic constrained, ring type and positions not given here)
T8 construct: 13 aa cyclic constrained peptide
T8 peptide: ARGWVTDGFSSLK
Outline: as §1

[10] = molecular target: ApoC3 peptide … S48K (human, cyclic constrained)
Outline: as §1

[11] = molecular target: T9, ApoC3 peptide … T44S (human, not fully specified (bridges); also: cyclic constrained)
T9 peptide: ARGWVSDGFSSLK
Outline: as §1

[12] = molecular target: T10, ApoC3 peptide … S49Q (human, cyclic constrained)
T10 peptide: ARGWVTDGFSQLK
Outline: as §1

[13] = molecular target: T11, ApoC3 peptide … A39N (human, cyclic constrained)
T11 peptide: NRGWVTDGFSSLK
Outline: as §1

[14] = molecular target: T12, ApoC3 peptide … G46D (human, also: cyclic constrained)
T12 peptide: ARGWVTDDFSSLK
Outline: as §1

[15] = molecular target: T13, ApoC3 peptide … F47A (human, not fully specified (bridges); also: cyclic constrained)
T13 peptide: ARGWVTDGASSLK
Outline: as §1

[16] = molecular target: T14, ApoC3 peptide … S48R (human, not fully specified (bridges); also: cyclic constrained)
T14 peptide: ARGWVTDGFRSLK
Outline: as §1

[17] = molecular target: T15, ApoC3 peptide … S49N (human, cyclic constrained)
T15 peptide: ARGWVTDGFSNLK
Outline: as §1

[18] = molecular target: T16, ApoC3 peptide … K51Q (human, not fully specified; cyclic constrained)
T16 peptide: ARGWVTDGFSSLQ
Outline: as §1

[19] = molecular target: T17, ApoC3 peptide … R40D (human, not fully specified (bridges); also: cyclic constrained)
T17 peptide: ADGWVTDGFSSLK
Outline: as §1

[20] = molecular target: T18, ApoC3 peptide … K51P (human, not fully specified; cyclic constrained)
T18 peptide: ARGWVTDGFSSLP
Outline: as §1

[21] = molecular target: T19, ApoC3 peptide … G46K (human, not fully specified (bridges); also: cyclic constrained)
T19 peptide: ARGWVTDKFSSLK
Outline: as §1

[22] = molecular target: T20, ApoC3 peptide … G41W (human, also: cyclic constrained)
T20 peptide: ARWWVTDGFSSLK
Outline: as §1

[23] = molecular target: T21, ApoC3 peptide … V43E (human, not fully specified; cyclic constrained)
T21 peptide: ARGWETDGFSSLK
Outline: as §1

[24] = molecular target: T22, ApoC3 peptide … G46T (human, thioether (positions not given here); also: cyclic constrained)
T22 peptide: ARGWVTDTFSSLK
Outline: as §1

[25] = molecular target: T23, ApoC3 peptide … L50A (human, not fully specified; cyclic constrained)
T23 peptide: ARGWVTDGFSSAK
Outline: as §1

[26] = molecular target: T24, ApoC3 peptide … R40K (human, not fully specified (bridges); also: cyclic constrained)
T24 peptide: AKGWVTDGFSSLK
Outline: as §1

[27] = molecular target: ApoC3 peptide … S49D (human, cyclic constrained)
Outline: as §1

[28] = molecular target: T25, ApoC3 peptide … G41H (human, also: cyclic constrained)
T25 peptide: ARHWVTDGFSSLK
Outline: as §1

[29] = molecular target: T26, ApoC3 peptide … D45A (human, not fully specified (bridges); also: cyclic constrained)
T26 peptide: ARGWVTAGFSSLK
Outline: as §1

[30] = molecular target: T27, ApoC3 peptide … L50E (human, not fully specified; cyclic constrained)
T27 peptide: ARGWVTDGFSSEK
Outline: as §1

B1: anti-ApoC3 antibody 14C7 (antibody, V domains shown)
VH: QVQVQESGPGLVKPSQTLSLTCTVSGGSITTNSYYWSWIRQPPGKGLEWMGAIDYSGDTYYSPSLKSRTSISRDTSKNQFTLQLTSVTPEDTAVYYCVSRIPTGEYWGQGTQVTVSS
VL: QTVVTQEPSLSVSPGGTVTLTCGLNSGSVTSSNYPDWYQQTPGQAPRLLIYNTNSRHSGVPSRFSGSISGNKAALTITGAQPEDEADYYCALYMGSDSVVFGGGTHLTVL
notes: it was detected with goat anti-human IgG (Fc); also called mAb 14C7; llama antibody 14C7
[1]
  % of binding to wild-type peptide: 2.6%
[2]
  % of binding to wild-type peptide: 108%
[3]
  % of binding to wild-type peptide: 0.06%
[4]
  % of binding to wild-type peptide: 0%
[5]
  % of binding to wild-type peptide: 0%
[6]
  % of binding to wild-type peptide: 38.7%
[7]
  % of binding to wild-type peptide: 230%
[8]
  % of binding to wild-type peptide: 0%
[9]
  % of binding to wild-type peptide: 100%
[10]
  % of binding to wild-type peptide: 90%
[11]
  % of binding to wild-type peptide: 1.12%
[12]
  % of binding to wild-type peptide: 0.33%
[13]
  % of binding to wild-type peptide: 103%
[14]
  % of binding to wild-type peptide: 0%
[15]
  % of binding to wild-type peptide: 0%
[16]
  % of binding to wild-type peptide: 34.5%
[17]
  % of binding to wild-type peptide: 0%
[18]
  % of binding to wild-type peptide: 5.47%
[19]
  % of binding to wild-type peptide: 50%
[20]
  % of binding to wild-type peptide: 0.24%
[21]
  % of binding to wild-type peptide: 0.24%
[22]
  % of binding to wild-type peptide: 17.7%
[23]
  % of binding to wild-type peptide: 0%
[24]
  % of binding to wild-type peptide: 0%
[25]
  % of binding to wild-type peptide: 0%
[26]
  % of binding to wild-type peptide: 58.1%
[27]
  % of binding to wild-type peptide: 0%
[28]
  % of binding to wild-type peptide: 23.1%
[29]
  % of binding to wild-type peptide: 45.3%
[30]
  % of binding to wild-type peptide: 0%
